Results: EP1188828A1

Columns and labels:
[1] = biological target: rat Reg-binding protein (rat Reg receptor, rat homologue of EXTL3/EXTR1) with N-terminal HA tag (rat); test: displacement of ^125I-labeled rat Reg protein (competitor tracer) from CHO cells stably expressing rat Reg receptor
[2] = biological target: rat Reg-binding protein (rat Reg receptor, rat homologue of EXTL3/EXTR1) with N-terminal HA tag (rat); test: cell-based or functional assay
[3] = biological target: rat Reg-binding protein (rat Reg receptor, rat homologue of EXTL3/EXTR1) with N-terminal HA tag (rat); test: radioligand binding on CHO cells stably expressing HA-tagged rat Reg receptor
[4] = biological target: rat Reg-binding protein (rat Reg receptor, rat homologue of EXTL3/EXTR1) with N-terminal HA tag (rat); test: displacement of ^125I-labeled rat Reg protein from CHO cells stably expressing rat Reg receptor

B1: human REG protein (REG Iα) (ligand, UniProt P05451 23-166, looked up)
chain: QEAQTELPQARISCPEGTNAYRSYCYYFNEDRETWVDADLYCQNMNSGNLVSVLTQAEGAFVASLIKESGTDDFNVWIGLHDPKKNRRWHWSSGSLVSYKSWGIGAPSSVNPGYCVSLTSSTGFQKWKDVPCEDKFSFVCKFKN
For B1, the Ki [1] was 7.41 nM.

B2: rat Reg protein (Reg I) (ligand, UniProt P10758 22-165, looked up)
chain: QEAEEDLPSARITCPEGSNAYSSYCYYFMEDHLSWAEADLFCQNMNSGYLVSVLSQAEGNFLASLIKESGTTAANVWIGLHDPKNNRRWHWSSGSLFLYKSWDTGYPNNSNRGYCVSVTSNSGYKKWRDNSCDAQLSFVCKFKA
modifications: [^125I] label by Bolton-Hunter reagent where used as the labelled tracer; unlabeled where used as competitor
B2 was tested, and the BrdU incorporation of CHO cell line #3 stably expressing the Reg receptor [2] was 4.01 nM, the BrdU incorporation of CHO cell line #22 stably expressing the Reg receptor [2] was 1.11 nM and the Kd [3] was 4.41 nM. It also gave a Ki [4] of 1.61 nM.
